Experimental data as given in patent publication US6300131, “Telomerase-associated proteins” (Johns Hopkins University, dated 2001).

Target: ribosomal associated protein L22 (human, UniProt P35268)
Assay: co-immunoprecipitation from 293 cell lysate, Western blot
Description: Multi-tissue northern blots (Clontech) were hybridized with a 0.7 kb BamHI-EcoRI hStau cDNA probe according to the manufacturer's procedures. In particular, blots were hybridized at 68° C. in ExpressHyb solution (Clontech) for 1 hour with shaking. Blots were washed several times in 2×SSC, 0.05% SDS at room temperature, with a final wash in 0.1×SSC and 0.1% SDS at 60° C. for about 40 minutes. The blots then were re-probed with an actin probe without stripping the hStau signal. Signal intensity was quantified on a BAS 1500 PhosphorImager system (Fuji Medical System, Inc, Stamford, Conn.).

B1: human staufen (hStau) polypeptide (other)
chain: MKLGKKPMYKPVDPYSRMRSTYNYNMRGGAYPPRYFYPFPVPPLLYQVELSVGGQQFNGKGKTRQAAKHDAAAKALRILQNEPLPERLEVNGRESEEENLNKSEISQVFEIALKRNLPVNFEVARESGPPHMKNFVTKVSVGEFVGEGEGKSKKISKKNAAIAVLEELKKLPPLPAVERVKPRIKKKTKPIVKPQTSPEYGQGINPISRLAQIQQAKKEKEPEYTLLTERGLPRRREFVMQVKVGNHTAEGTGTNKKVAKRNAAENMLEILGFKVPQAQPTKPALKSEEKTPIKKPGDGRKVTFFEPGSGDENGTSNKEDEFRMPYLSHQQLPAGILPMVPEVAQAVGVSQGHHTKDFTRAAPNPAKATVTAMIARELLYGGTSPTAETILKNNISSGHVPHGPLTRPSEQLDYLSRVQGFQVEYKDFPKNNKNEFVSLINCSSQPPLISHGIGKDVESCHDMAALNILKLLSELDQQSTEMPRTGNGPMSVCGRC
- binding result: no binding
